{
  "source": "patent US10456446B2",
  "about": "“Use of human small leucine zipper protein in osteogenesis procedure” (Korea University Research and Business Foundation, priority 2013, dated 2019)",
  "tested_on": "BMMs (bone marrow macrophages)-derived mature osteoclasts",
  "assay": "Osteoclast marker mRNA in osteoclasts derived from bone marrow macrophages of sLZIP TG mice, real-time PCR",
  "assay_type": "cell-based, mouse",
  "settings": "RANKL 100 ng/mL and M-CSF 30 ng/mL, wild type versus sLZIP TG mice",
  "procedure": "Real-time PCR was performed in LightCycler 480 using a SYBR Green Master Mix (Roche, Mannheim, Germany). β-actin was used as an internal control group. A target gene expression level rate with respect to β-actin was calculated using CT method. A Ct value is defined as a PCR cycle number at which a fluorescence signal reaches a fixed target threshold. Experiments were technically repeated three times for each experiment.\nWhen a bone is initially developed during an embryo, cartilage is formed and hardened to a bone according to a so-called ossification (or osteogenesis) process. In order to examine whether sLZIP-mediated osteogenesis is associated with cartilage development, an effect of sLZIP in chondrocyte differentiation was examined. For this purpose, ATDC5 cells were temporarily transfected with sLZIP at different contents (0.1 μg to 0.5 μg). Total RNA was extracted from the cells, and an mRNA expression level of a chondrocyte marker was measured using RT-PCR analysis (FIG. 8A) and real-time PCR (FIG. 8B). GAPDH was used as an internal control group. An experiment was repeated three times. […] Total RNA was extracted from the mature osteoclasts, and an mRNA expression level of an osteoclast marker was measured using real-time PCR (FIG. 8D). […]",
  "data": [
    {"molecule": "sLZIP: human small leucine-zipper protein, isoform of LZIP, 354 amino acids, no transmembrane domain, GenBank FJ263669, SEQ ID NO: 1 (protein, listed as Homo sapiens) MELELDAGDQDLLAFLLEESGDLGTAPDEAVRAPLDWALPLSEVPSDWEVDDLLCSLLSPPASLNILSSSNPCLVHHDHTYSLPRETVSMDLESESCRKEGTQMTPQHMEELAEQEIARLVLTDEEKSLLEKEGLILPETLPLTKTEEQILKRVRRKIRNKRSAQESRRKKKVYVGGLESRVLKYTAQNMELQNKVQLLEEQNLSLLDQLRKLQAMVIEISNKTSSSSMYSSDTRGSLPAEHGVLSRQLRALPSEDPYQLELPALQSEVPKDSTHQWLDGSDCVLQAPGNTSCLLHYMPQAPSAEPPLEWPFPDLFSEPLCRGPILPLQANLTRKGGWLPTGSPSVILQDRYSG", "values": [
      {"measurement": "osteoclast markers (Oscar, Ctsk, TARP)", "result": "no difference"}
    ]}
  ]
}
